B1: SCOCO-like protein 1 (Saccharomyces cerevisiae), Q3E784 (parent)
chain: MSAENISTGSPTGKQPSSEVNLGEREAGTKNERMMRQTKLLKDTLDLLWNKTLEQQEVCEQLKQENDYLEDYIGNLMRSSNVLEK
partner: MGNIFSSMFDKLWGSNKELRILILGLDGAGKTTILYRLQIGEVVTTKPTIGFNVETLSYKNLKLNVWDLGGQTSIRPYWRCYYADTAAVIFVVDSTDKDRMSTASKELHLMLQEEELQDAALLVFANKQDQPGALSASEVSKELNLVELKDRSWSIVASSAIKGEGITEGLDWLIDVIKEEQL

Variants of: B1
Settings: with arl1_yeast ARL1, P38116

Variant	effect of a mutation on the interaction
MSAENISTGSPTGKQPSSEVNLGEREAGTKNERMMRQTKLLKDTLDLLWNKTLEQQEVCEQLKQENDYLEDAIGNLMRSSNVLEK	disrupting interaction

Source: IntAct's records for PubMed 12620189
